Results on four molecules are retold here after patent publication US20050260657A1 (UNIVERSITY OF TOKYO, published 2005).

First the molecules themselves.
B2: MBP-ERp44 (maltose binding protein fused ERp44) (other, mouse, UniProt Q9D1Q6 30-406, looked up, not shown: large carriers)
chain: EIASLDSENIDEILNNADVALVNFYADWCRFSQMLHPIFEEASDVIKEEYPDKNQVVFARVDCDQHSDIAQRYRISKYPTLKLFRNGMMMKREYRGQRSVKALADYIRQQKSNPVHEIQSLDEVTNLDRSKRNIIGYFEQKDSENYRVFERVASILHDDCAFLSAFGDLSKPERYNGDNVIYKPPGRSAPDMVYLGSMTNFDVTYNWIQDKCVPLVREITFENGEELTEEGLPFLILFHMKDDTESLEIFQNEVARQLISEKGTINFLHADCDKFRHPLLHIQKTPADCPVIAIDSFRHMYVFGDFKDVLIPGKLKQFVFDLHSGKLHREFHHGPDPTDTAPGEQDQDVASSPPESSFQKLAPSEYRYTLLRDRDEL

Assay [1] deals with MBP (maltose binding protein alone) (UniProt P0AEX9 27-392 = MBP). The experiment in a line: GST pull-down, pH 5.2, 4 mM Ca2+.
For assay [2], the target named is B2. The experiment in a line: GST pull-down, acid buffer with Ca2+.
Assay [3] concerns the target IP3R1 of mouse cerebellar microsomes in planar lipid bilayer (mouse, UniProt P11881 1-2749). The assay is described as follows: cell-based or functional assay.
Assay [4] has as its target T1, GFP-IP3R1 (IP3R1 fused N-terminally with green fluorescent protein) (UniProt P11881 1-2749).
T1 construct: Expressed in COS-7 or DT40-TKO cells; also called GFP-IP3R1-N; not shown: green fluorescent protein
The experiment in a line: co-immunoprecipitation from COS-7 cells exposed to ATP (activator of purinergic receptors), DSP crosslink.

Assay [5] concerns the target T2, IP3R1 (inositol 1,4,5-trisphosphate receptor type 1), untagged, expressed in cells (mouse, UniProt P11881 1-2749).
T2 construct: whole, on cells; ER membrane channel; species is printed for the DT40-KMN60 line, not for the COS-7 vector; also called mouse IP3R1 in DT40-KMN60 cells
The experiment in a line: interaction in transfected cells; data not shown.

T1 sequence (P11881 whole entry, the tested form may be a part): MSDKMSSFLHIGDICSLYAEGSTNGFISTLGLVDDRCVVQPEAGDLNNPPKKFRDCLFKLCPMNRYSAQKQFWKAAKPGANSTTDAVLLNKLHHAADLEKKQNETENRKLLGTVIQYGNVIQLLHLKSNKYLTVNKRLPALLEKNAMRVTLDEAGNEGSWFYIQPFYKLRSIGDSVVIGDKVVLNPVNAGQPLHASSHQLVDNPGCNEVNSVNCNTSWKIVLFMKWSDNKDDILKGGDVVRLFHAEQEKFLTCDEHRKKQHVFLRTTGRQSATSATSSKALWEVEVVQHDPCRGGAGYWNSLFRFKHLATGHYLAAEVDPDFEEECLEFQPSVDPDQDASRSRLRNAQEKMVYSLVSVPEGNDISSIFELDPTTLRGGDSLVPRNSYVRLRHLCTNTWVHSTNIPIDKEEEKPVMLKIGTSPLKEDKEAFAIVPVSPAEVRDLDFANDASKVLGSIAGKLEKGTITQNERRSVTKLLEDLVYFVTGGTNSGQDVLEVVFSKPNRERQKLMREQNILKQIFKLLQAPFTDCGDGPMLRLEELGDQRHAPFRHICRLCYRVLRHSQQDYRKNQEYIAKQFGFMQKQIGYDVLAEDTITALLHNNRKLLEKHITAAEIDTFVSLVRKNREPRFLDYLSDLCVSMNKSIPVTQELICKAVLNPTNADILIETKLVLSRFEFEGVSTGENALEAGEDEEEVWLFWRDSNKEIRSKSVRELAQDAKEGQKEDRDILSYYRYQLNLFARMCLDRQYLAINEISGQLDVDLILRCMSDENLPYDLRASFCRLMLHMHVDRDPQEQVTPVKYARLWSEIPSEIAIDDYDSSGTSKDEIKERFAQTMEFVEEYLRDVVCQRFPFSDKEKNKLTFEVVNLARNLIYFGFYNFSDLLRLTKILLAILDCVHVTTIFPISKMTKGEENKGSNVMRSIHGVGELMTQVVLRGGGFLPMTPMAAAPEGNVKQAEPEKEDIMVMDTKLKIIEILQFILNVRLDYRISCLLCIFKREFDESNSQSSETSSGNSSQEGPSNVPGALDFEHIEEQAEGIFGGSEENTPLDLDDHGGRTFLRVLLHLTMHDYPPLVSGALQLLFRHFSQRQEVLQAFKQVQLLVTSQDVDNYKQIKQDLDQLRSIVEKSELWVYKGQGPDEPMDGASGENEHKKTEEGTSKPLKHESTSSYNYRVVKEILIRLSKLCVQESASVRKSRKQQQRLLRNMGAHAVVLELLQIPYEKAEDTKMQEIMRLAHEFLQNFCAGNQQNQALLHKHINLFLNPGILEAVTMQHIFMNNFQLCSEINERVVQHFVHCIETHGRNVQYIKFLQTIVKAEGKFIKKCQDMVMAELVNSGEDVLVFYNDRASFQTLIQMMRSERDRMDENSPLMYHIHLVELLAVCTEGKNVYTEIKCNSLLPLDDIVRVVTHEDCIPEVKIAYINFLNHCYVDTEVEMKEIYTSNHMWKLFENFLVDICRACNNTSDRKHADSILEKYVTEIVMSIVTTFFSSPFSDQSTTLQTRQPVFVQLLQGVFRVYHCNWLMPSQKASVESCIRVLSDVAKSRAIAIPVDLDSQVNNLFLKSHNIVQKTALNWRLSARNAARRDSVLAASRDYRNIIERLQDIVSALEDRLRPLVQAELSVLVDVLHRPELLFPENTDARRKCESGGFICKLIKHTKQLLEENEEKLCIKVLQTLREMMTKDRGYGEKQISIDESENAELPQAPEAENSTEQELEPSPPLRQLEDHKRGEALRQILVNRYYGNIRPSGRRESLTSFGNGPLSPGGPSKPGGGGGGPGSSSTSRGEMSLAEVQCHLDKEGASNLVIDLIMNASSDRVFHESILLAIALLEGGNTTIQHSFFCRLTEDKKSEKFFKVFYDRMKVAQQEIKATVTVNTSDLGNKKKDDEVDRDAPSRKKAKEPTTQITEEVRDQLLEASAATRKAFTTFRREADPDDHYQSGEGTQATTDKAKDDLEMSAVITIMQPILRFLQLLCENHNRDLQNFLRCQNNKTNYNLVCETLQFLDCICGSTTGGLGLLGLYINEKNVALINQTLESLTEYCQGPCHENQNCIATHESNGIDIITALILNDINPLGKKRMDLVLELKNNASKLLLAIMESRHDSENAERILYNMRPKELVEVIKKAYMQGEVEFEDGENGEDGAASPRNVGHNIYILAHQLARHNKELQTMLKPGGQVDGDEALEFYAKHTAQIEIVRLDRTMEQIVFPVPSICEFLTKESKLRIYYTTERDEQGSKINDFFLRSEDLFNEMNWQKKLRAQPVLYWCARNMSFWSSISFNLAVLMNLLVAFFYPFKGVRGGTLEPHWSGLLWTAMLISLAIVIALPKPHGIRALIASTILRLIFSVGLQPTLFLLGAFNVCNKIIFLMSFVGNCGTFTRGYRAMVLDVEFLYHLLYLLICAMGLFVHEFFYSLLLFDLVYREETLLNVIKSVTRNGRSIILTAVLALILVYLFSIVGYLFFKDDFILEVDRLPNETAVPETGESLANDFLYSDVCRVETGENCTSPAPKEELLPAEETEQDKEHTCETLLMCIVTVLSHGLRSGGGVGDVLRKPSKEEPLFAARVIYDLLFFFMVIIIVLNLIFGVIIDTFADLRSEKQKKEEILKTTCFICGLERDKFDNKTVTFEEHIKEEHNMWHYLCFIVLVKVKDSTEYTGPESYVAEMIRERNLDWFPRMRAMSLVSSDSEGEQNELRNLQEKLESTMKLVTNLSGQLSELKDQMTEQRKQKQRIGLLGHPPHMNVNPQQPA

B1: GST-1L3V (glutathione S-transferase fused L3V domain of IP3R1) (other, not shown: a dimerising Fc or GST; large carriers; small tags and cut ends)
chain: KDDFILEVDRLPNETAVPETGESLANDFLYSDVCRVETGENCTSPAPKEELLPAEETEQDKEHTCE
notes: Expressed in E. coli, purified on GSH-Sepharose; also called GST-L3V
Consider B1, for which the binding result is “no binding” in assay [1] and “binds” in assay [2].

In the case of B2, in assay [3], the “Single-channel open probability (IC50)” value turned out to be 1000 nM.

B3: HA-ERp44 (haemagglutinin A epitope-tagged ERp44) (other, mouse, UniProt Q9D1Q6 30-406, looked up, not shown: small tags and cut ends)
chain: EIASLDSENIDEILNNADVALVNFYADWCRFSQMLHPIFEEASDVIKEEYPDKNQVVFARVDCDQHSDIAQRYRISKYPTLKLFRNGMMMKREYRGQRSVKALADYIRQQKSNPVHEIQSLDEVTNLDRSKRNIIGYFEQKDSENYRVFERVASILHDDCAFLSAFGDLSKPERYNGDNVIYKPPGRSAPDMVYLGSMTNFDVTYNWIQDKCVPLVREITFENGEELTEEGLPFLILFHMKDDTESLEIFQNEVARQLISEKGTINFLHADCDKFRHPLLHIQKTPADCPVIAIDSFRHMYVFGDFKDVLIPGKLKQFVFDLHSGKLHREFHHGPDPTDTAPGEQDQDVASSPPESSFQKLAPSEYRYTLLRDRDEL
notes: whole, on cells; tagged vectors made by PCR
On to B3, for which, in assay [4], the “fold increase of GFP-IP3R1 co-precipitated with HA-ERp44 after the treatment against untreated cells” value is around 2 fold.

B4: ERp44-C58S (other, UniProt Q9D1Q6 30-406, looked up)
chain: EIASLDSENIDEILNNADVALVNFYADWSRFSQMLHPIFEEASDVIKEEYPDKNQVVFARVDCDQHSDIAQRYRISKYPTLKLFRNGMMMKREYRGQRSVKALADYIRQQKSNPVHEIQSLDEVTNLDRSKRNIIGYFEQKDSENYRVFERVASILHDDCAFLSAFGDLSKPERYNGDNVIYKPPGRSAPDMVYLGSMTNFDVTYNWIQDKCVPLVREITFENGEELTEEGLPFLILFHMKDDTESLEIFQNEVARQLISEKGTINFLHADCDKFRHPLLHIQKTPADCPVIAIDSFRHMYVFGDFKDVLIPGKLKQFVFDLHSGKLHREFHHGPDPTDTAPGEQDQDVASSPPESSFQKLAPSEYRYTLLRDRDEL
notes: whole, on cells
For the molecule B4, the binding result in assay [5] is “binds”.
